Measurements: publication PMC9959518, “Influence of the Drug Position on Bioactivity in Angiopep-2—Daunomycin Conjugates” (International Journal of Molecular Sciences, 2023)

Legend:
[1] = tested on: U87 human glioblastoma cells; assay: In vitro cellular uptake by flow cytometry; format: cell-based; conditions: 50 µM
Description: The in vitro cytostatic effect of any peptide–drug conjugate is influenced by many factors. One of the main effects is the cellular uptake of the conjugates by cells. Therefore, we compared the cellular uptake of the different conjugates on U87 glioblastoma cells. The cells were incubated with the conjugates (2, 10, and 50 µM) for 1 h. Then, after a washing step, the cells were treated with trypsin to remove the cell surface-bound conjugates and other cell surface structures that enable non-specific binding, so only the quantity of the conjugates actually entering the cells was detected by flow cytometry. […] The cellular uptake of the conjugates was concentration-dependent. […]
U87 cells were plated into 24-well tissue culturing plates with the initial cell number of 10^5 cells/well 24 h before the experiment. […] Data were recorded for 5000–10,000 cells at λex = 488 nm. The fluorescence mean was calculated. Daunomycin-positive cells were also gated from the living cell population, and the percentage of daunomycin-containing cells was calculated. The gating was determined from the untreated control cell count/fluorescence intensity histogram by adjusting the lowest fluorescence intensity value of the gated cells to the highest fluorescence intensity value of the live population of untreated control cells. Cells showing fluorescence intensities above this were considered as Dau-positive. […]

[2] = Degradation in rat liver lysosomal homogenate followed by HPLC-MS; format: in vitro ADME
Description: The conjugates were treated with lysosomal homogenate for 5 min, 1 h, 6 h, 24 h, and 72 h, and the degradation was followed by HPLC-MS. Control studies investigating conjugates in buffer (without lysosomal homogenate) were also performed, and for these, all conjugates were stable. […] At 6 h, it was the main drug-containing metabolite, and at 72 h, only this Dau-containing fragment could be detected. This time-dependent pattern was also observed in the case of conjugate 2, where Dau was attached to the side chain of Lys in position 15, and the formed smallest metabolite was H-Lys(Dau=Aoa)-OH. […] It is likely that, in this case, a large steric hindrance occurred, and the enzymes were not able to access the peptide bonds around ^10Lys. This observation might explain the discrepancy between the efficient cellular uptake and the lower anticancer activity of this conjugate.
A stock solution with a concentration of 2.5 μg/μL was prepared from the conjugates in distilled water, and this was diluted 100× with 0.2 M sodium acetate buffer (pH 5.03). The rat liver lysosomal homogenate (16.6 μg/μL) was diluted 20× with the same buffer, and then the two solutions were mixed in a 1:1 (protein:peptide, m/m) ratio. In each case, control measurements were also performed, in which buffer was added to the conjugates instead of the lysosomal homogenate. The solutions were stirred at 600 rpm at 37 °C in a thermostat (ThermoMixer, Eppendorf AG, Hamburg, Germany), and after 5 min, 1 h, 6 h, 24 h, and 72 h, 50 μL samples were taken. Each reaction was quenched with 5 μL formic acid and the samples were stored frozen until analysis.
The HPLC-MS analysis of the samples was performed with a Dionex 3000 HPLC-Q Exactive Focus hybrid quadrupole-orbitrap mass spectrometer (Thermo Fisher Scientific, Bremen, Germany). For separation, a Supelco Ascentis C18 column (3 μm, 100 Å, 150 × 2.1 mm; Merck, Darmstadt, Germany) and gradient elution (0 min 2% B, 1 min 2% B, 17 min 90% B; A eluent: 0.1% formic acid/distilled water, eluent B: 0.1% formic acid/acetonitrile + distilled water (80:20, v/v%), flow rate 0.2 mL/min, 40 °C) was used, and high-resolution mass spectra were recorded in the range of 200–1800 m/z. The data were analyzed using the Xcalibur program (Thermo Fisher Scientific).

[3] = tested on: U87 human glioblastoma cells; format: cell-based; conditions: MTT test, 0.05–50 µM, treated 24 h (method: overnight), washed, further 48 h (method: 72 h) at 37 °C, two independent experiments with four parallel measurements
Description: The in vitro cytostatic effect of the synthesized peptide (1) and daunomycin-peptide conjugates (2–8) was investigated on U87 human glioblastoma cells. The cells were treated with the peptide and conjugates at different concentrations (0.05–50 μM) for 24 h, and after a washing step, the cells were incubated for another […] at 37 °C. The cytostatic effect of the compounds was determined using the MTT test.
U87 human glioblastoma cell line was cultured in DMEM supplemented with 10% FBS, 2 mM L-glutamine, penicillin–streptomycin antibiotic mixture (50 IU/mL and 50 μg/mL, respectively), 1 mM sodium pyruvate, and 1% non-essential amino acid mixture. The cell culture was maintained at 37 °C in a humidified atmosphere with 5% CO2. The U87 cell line was a generous gift of Dr. József Tóvári (Department of Experimental Pharmacology, National Institute of Oncology, Budapest, Hungary).
For determining the cytostatic effect of the conjugates, U87 cells were grown to confluency and then divided into 96-well tissue culture plates with an initial cell number of 5.0 × 10^3 cells/well. After 24 h incubation at 37 °C, the cells were treated with the compounds overnight in the concentration range of 0.05–50 μM in 200 μL final volume containing 1.0 v/v% DMSO, whereas control cells were treated only with serum-free medium or with 1.0 v/v% DMSO at the same conditions. After the incubation, cells were washed twice with serum-free medium, then the cells were cultured for an additional 72 h in 10% serum-containing medium at 37 °C. Following that, MTT solution (at c = 0.37 mg/mL final concentration) was added to each well. The respiratory chain [32] and other electron transport systems reduced MTT and thereby formed non-water-soluble violet formazan crystals within the cells. The amount of these crystals can be determined by spectrophotometry and serves as an estimate for the number of mitochondria in addition to the number of living cells in the well [35]. After 3 h of incubation with MTT, the cells were centrifuged for 5 min at 2000 rpm and the supernatant was removed. The obtained formazan crystals were dissolved in DMSO (100 µL), and the optical density (OD) of the samples was measured at λ = 540 nm and 620 nm, respectively, using ELISA Reader (iEMS Reader, Labsystems, Finland). The OD620 values were subtracted from the OD540 values. The percent of cytostasis was calculated with the following equation:(1) Cytostatic effect (%)=1−ODtreated/ODcontrol×100 where the ODtreated and ODcontrol values correspond to the optical densities of the treated and the control wells, respectively. In each case, two independent experiments were carried out with four parallel measurements. Cytostasis was plotted as a function of concentration, and the half-maximal inhibitory concentration was calculated based on a sigmoid curve fitted on the data points using Microcal™ Origin 2018 software. IC50 represents the concentration of a compound that is required for 50% inhibition, expressed in micromolar units.

Compound	toxicity observed during the cellular uptake measurement (live cells in % of untreated control) [1]	release of Dau=Aoa-Gly-OH (in words) ([2]; pH 5.03, 37 °C)	IC50 [3] [µM]	amount of H-K(Dau=Aoa-VA)-OH formed ([2]; pH 5.03, 37 °C)	amount of expected metabolite Dau=Aoa-Val-OH produced after 72 h ([2]; pH 5.03, 37 °C, 72 h)	smallest metabolite H-Lys(Dau=Aoa)-OH at 1 h ([2]; 1:1 protein:peptide m/m, 0.2 M sodium acetate pH 5.03, 37 °C, 1 h)	release of the smallest metabolite H-Lys(Dau=Aoa)-OH (in words) ([2]; pH 5.03, 37 °C, up to 72 h)
COc1cccc2c1C(=O)c1c(O)c3c(c(O)c1C2=O)C[C@@](O)(C(C)=NOCC(=O)NCC(=O)N[C@@H](Cc1ccccc1)C(=O)N[C@@H](CC(C)C)C(=O)NCC(=O)NCCCC[C@H](NC(=O)CNC(=O)[C@H](CCCNC(=N)N)NC(=O)[C@H](CO)NC(=O)CNC(=O)CNC(=O)[C@H](Cc1ccc(O)cc1)NC(=O)[C@H](Cc1ccccc1)NC(=O)[C@H](Cc1ccccc1)NC(=O)[C@@H](N)[C@@H](C)O)C(=O)N[C@@H](CCCNC(=N)N)C(=O)N[C@@H](CC(N)=O)C(=O)N[C@@H](CC(N)=O)C(=O)N[C@@H](Cc1ccccc1)C(=O)N[C@@H](CCCCN)C(=O)N[C@H](C(=O)N[C@@H](CCC(=O)O)C(=O)N[C@@H](CCC(=O)O)C(=O)N[C@@H](Cc1ccc(O)cc1)C(=O)O)[C@@H](C)O)C[C@@H]3O[C@H]1C[C@H](N)[C@H](O)[C@H](C)O1 [compound 9, H-TFFYGGSRGK(Dau=Aoa-GFLG)RNNFKTEEY-OH]	slight toxicity	particularly slow	16.9 ± 5.6	–	–	–	–
COc1cccc2c1C(=O)c1c(O)c3c(c(O)c1C2=O)C[C@@](O)(C(C)=NOCC(=O)N[C@H](C(=O)N[C@@H](C)C(=O)NCCCC[C@H](NC(=O)CNC(=O)[C@H](CCCNC(=N)N)NC(=O)[C@H](CO)NC(=O)CNC(=O)CNC(=O)[C@H](Cc1ccc(O)cc1)NC(=O)[C@H](Cc1ccccc1)NC(=O)[C@H](Cc1ccccc1)NC(=O)[C@@H](N)[C@@H](C)O)C(=O)N[C@@H](CCCNC(=N)N)C(=O)N[C@@H](CC(N)=O)C(=O)N[C@@H](CC(N)=O)C(=O)N[C@@H](Cc1ccccc1)C(=O)N[C@@H](CCCCN)C(=O)N[C@H](C(=O)N[C@@H](CCC(=O)O)C(=O)N[C@@H](CCC(=O)O)C(=O)N[C@@H](Cc1ccc(O)cc1)C(=O)O)[C@@H](C)O)C(C)C)C[C@@H]3O[C@H]1C[C@H](N)[C@H](O)[C@H](C)O1 [compound 10, H-TFFYGGSRGK(Dau=Aoa-VA)RNNFKTEEY-OH]	–	–	> 50	very small amounts	negligible amounts	–	–
COc1cccc2c1C(=O)c1c(O)c3c(c(O)c1C2=O)C[C@@](O)(C(C)=NOCC(=O)NCCCC[C@H](NC(=O)CNC(=O)[C@H](CCCNC(=N)N)NC(=O)[C@H](CO)NC(=O)CNC(=O)CNC(=O)[C@H](Cc1ccc(O)cc1)NC(=O)[C@H](Cc1ccccc1)NC(=O)[C@H](Cc1ccccc1)NC(=O)[C@@H](N)[C@@H](C)O)C(=O)N[C@@H](CCCNC(=N)N)C(=O)N[C@@H](CC(N)=O)C(=O)N[C@@H](CC(N)=O)C(=O)N[C@@H](Cc1ccccc1)C(=O)N[C@@H](CCCCN)C(=O)N[C@H](C(=O)N[C@@H](CCC(=O)O)C(=O)N[C@@H](CCC(=O)O)C(=O)N[C@@H](Cc1ccc(O)cc1)C(=O)O)[C@@H](C)O)C[C@@H]3O[C@H]1C[C@H](N)[C@H](O)[C@H](C)O1 [compound 4, H-TFFYGGSRGK(Dau=Aoa)RNNFKTEEY-OH]	–	–	24 ± 5.9	–	–	not detectable	not efficiently released
COc1cccc2c1C(=O)c1c(O)c3c(c(O)c1C2=O)C[C@@](O)(C(C)=NOCC(=O)NCCCC[C@H](NC(=O)CNC(=O)[C@H](CCCNC(=N)N)NC(=O)[C@H](CO)NC(=O)CNC(=O)CNC(=O)[C@H](Cc1ccc(O)cc1)NC(=O)[C@H](Cc1ccccc1)NC(=O)[C@H](Cc1ccccc1)NC(=O)[C@@H](NC(=O)CON=C(C)[C@]1(O)Cc2c(O)c4c(c(O)c2[C@@H](O[C@H]2C[C@H](N)[C@H](O)[C@H](C)O2)C1)C(=O)c1c(OC)cccc1C4=O)[C@@H](C)O)C(=O)N[C@@H](CCCNC(=N)N)C(=O)N[C@@H](CC(N)=O)C(=O)N[C@@H](CC(N)=O)C(=O)N[C@@H](Cc1ccccc1)C(=O)N[C@@H](CCCCN)C(=O)N[C@H](C(=O)N[C@@H](CCC(=O)O)C(=O)N[C@@H](CCC(=O)O)C(=O)N[C@@H](Cc1ccc(O)cc1)C(=O)O)[C@@H](C)O)C[C@@H]3O[C@H]1C[C@H](N)[C@H](O)[C@H](C)O1 [compound 7, Dau=Aoa-TFFYGGSRGK(Dau=Aoa)RNNFKTEEY-OH]	slight toxicity	–	7.8 ± 6.3	–	–	–	–
